Measured values as given in patent US20250152724A1, “ANTIBODY CONJUGATES SPECIFIC FOR MUCIN-1 AND METHODS OF USE THEREOF” (R.P. Scherer Technologies, LLC, priority 2022, published 2025).
Changes are numbered by the printed parent chain.

B1: MUC1 H02: anti-MUC1 monoclonal antibody; VH SEQ ID NO:1, VL SEQ ID NO:4 (antibody, V domains shown)
VH: EVQLVQSGAEVKKPGATVKISCKVSGYTFTDHTMHWIKQRPGKGLEWMGYFYPRDDSTNYNEKFKGRVTLTADKSTDTAYMELSSLRSEDTAVYYCARGLRYALDYWGQGTLVTVSS
VL: EIVLTQSPATLSLSPGERATLSCRASSSVSSSYLYWYQQKPGQAPRLWIIGTSNLASGVPARFSGSGSGTDYTLTISSLEPEDAAVYYCHQYSWSPPTFGQGTKLEIK
B2: MUC1 gB06: anti-MUC1 monoclonal antibody; VH SEQ ID NO:1, VL SEQ ID NO:2 (antibody, V domains shown)
VH: B1 VH
VL: B1 VL with I50Y, S93A
B3: MUC1 G12: anti-MUC1 monoclonal antibody; VH SEQ ID NO:1, VL SEQ ID NO:3 (antibody, V domains shown)
VH: B1 VH
VL: B1 VL with S30G, Y33N, I50Y, G51R, T52S, S53T, N54K, S93R

Key:
[1] = biological target: recombinant 60mer MUC1 non-glycosylated-biotin (Homo sapiens, UniProt P15941); test: MUC1 ELISA; assay type: binding; conditions: FIGS. 2A-2C
Chain of recombinant 60mer MUC1 non-glycosylated-biotin (P15941 138-197): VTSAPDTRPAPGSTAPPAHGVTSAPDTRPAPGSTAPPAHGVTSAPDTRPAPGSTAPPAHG
Method: (§1) MUC1 ELISA: Antigens were coated directly on a Streptavidin (Pierce, 15500) or Maxisorp (VWR, 62409-024) 96-well plate at 100 ng/well in PBS. Coated plates were incubated at 4° C. overnight. The plates were blocked with casein blocking buffer (Thermo Fisher, 37528) and washed with PBS-Tween-20. Antibodies were serially diluted in PBS, added to the coated wells and incubated for 1 h at room temperature with shaking. To test for stickiness, antibodies were also added to uncoated, blocked wells. Peroxidase (HRP)-conjugated anti-Fc secondary (Jackson Immunoresearch, #109-035-098) was used for detection, followed by a […] substrate (Thermo Fisher, 34028) and H2SO4 quench. Absorbance was read at 450 nm on a Molecular Devices plate reader.
(§2) 20mer MUC1 glycosylated-biotin refers to a peptide comprising the sequence […] (SEQ ID NO:26) with Tn (GalNac) antigen or sialyl Tn (Neu5Acα2-6GalNAc) antigen modifications on some of the S/T residues, where biotin in conjugated to the N-terminus. 60mer MUC1 non-glycosylated-biotin refers to a peptide comprising the sequence […] (SEQ ID NO:27), where biotin in conjugated to the N-terminus. Decoy peptide refers to a peptide comprising the sequence […] (SEQ ID NO:28), with Tn (GalNac) antigen or sialyl Tn (Neu5Acα2-6GalNAc) antigen modifications on some of the S/T residues.

[2] = biological target: recombinant 20mer MUC1 glycosylated-biotin (Homo sapiens, UniProt P15941); test: MUC1 ELISA; assay type: binding; conditions: FIGS. 2A-2C
Chain of recombinant 20mer MUC1 glycosylated-biotin (P15941 138-157): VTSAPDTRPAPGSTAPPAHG
Method: as §1, §2

decoy peptide = test: MUC1 ELISA; assay type: binding; conditions: FIGS. 2A-2C
Chain of decoy peptide (as listed by the source): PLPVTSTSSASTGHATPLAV
Method: as §1, §2

[3] = analytical size exclusion chromatography (SEC) to determine aggregation; assay type: physicochemical; conditions: unconjugated antibodies; mobile phase 300 mM NaCl, 25 mM sodium phosphate pH 6.8
Method: SEC HPLC: To determine aggregation, samples were analyzed using analytical size exclusion chromatography (SEC; Tosoh #08541) with a mobile phase of 300 mM NaCl, 25 mM sodium phosphate pH 6.8.
Methods. Antibodies (15 mg/mL) bearing one aldehyde tag were conjugated to linker-payloads at 1.1 mM, respectively. Reactions proceeded for 72 h at 37° C. in 20 mM sodium citrate, 50 mM NaCl pH 5.5 (20/50 buffer) containing 0.85-2.5% DMA. After conjugation, free drug was removed using a 30 kD MWCO 0.5 mL Amicon spin concentrator. Samples were added to the spin concentrator, centrifuged at 15,000×g for 7 min, then diluted with 450 μL 20 mM sodium citrate, 50 mM NaCl pH 5.5 and centrifuged again. The process was repeated 10 times. To determine the DAR of the final product, ADCs were examined by analytical chromatography using hydrophobic interaction (HIC) (Tosoh #14947) or PLRP-RP (Agilent PL1912-1802 1000A, 8 μm, 50×2.1 mm) columns. HIC analysis used mobile phase A: 1.5 M ammonium sulfate, 25 mM sodium phosphate pH 7.0, and mobile phase B: 25% isopropanol, 18.75 mM sodium phosphate pH 7.0. […] To determine aggregation, samples were analyzed using analytical size exclusion chromatography (SEC; Tosoh #08541) with a mobile phase of 300 mM NaCl, 25 mM sodium phosphate pH 6.8 with 5% isopropanol.

Molecule | binding to recombinant 60mer MUC1 non-glycosylated-biotin as assessed by ELISA [1] | binding to recombinant 20mer MUC1 glycosylated-biotin as assessed by ELISA [2] | binding to decoy peptide as assessed by ELISA (decoy peptide) | monomeric as determined by SEC [3]
B1 | not | bind | not | more than 98%
B2 | not | bind | not | 
B3 | not | bind | not | 
